Data taken from patent publication US20190091227A1, “METHODS FOR TREATING ER+, HER2-, HRG+ BREAST CANCER USING COMBINATION THERAPIES COMPRISING AN ANTI-ERBB3 ANTIBODY” (Merrimack Pharmaceuticals, Inc., priority 2016, published 2019).
“Also recorded” adds a separate entry of the source. Read-outs that look alike come from different tables or passages of the source.

Tests used:
[1] = system: metastatic ER-positive HER2-negative breast cancer; conditions: letrozole plus palbociclib, combination arm; cited from earlier work
[2] = cited from earlier work
[3] = system: CDK2; assay: CDK2 activation (phospho-Thr160) by Western blotting in MCF7 cells; type: cell-based, human; conditions: for CDK2 activation: MCF7, agent alone, 20-24 hours, HRG 10 nM, fulvestrant, palbociclib, abemaciclib 100 nM
Method: Cellular lysates were prepared by lysis in MPER lysis buffer with the addition of protease and phosphatase inhibitors for 30 minutes on ice. Cellular debris was removed by centrifugation at 10,000 rpm. Proteins were analyzed by Western blotting according to standard protocols.

[4] = system: RB; assay: RB phosphorylation (S807/811, S780) by Western blotting in MCF7 cells; type: cell-based, human; conditions: MCF7, 20-24 hours; HRG 10 nM, fulvestrant 50 nM, palbociclib, abemaciclib 40 nM
Method: MCF7 cells were cultured as described above. […] Cellular lysates were prepared by lysis in MPER lysis buffer with the addition of protease and phosphatase inhibitors for 30 mins on ice. Cellular debris were removed by centrifugation at 10,000 rpm. Proteins were analyzed by Western blotting according to standard protocols. Protein loading was estimated by blotting with a β-actin antibody (β-Actin (13E5) Rabbit mAb #4970 Cell Signal) and RB activation was measured by detection of phosphorylation of RB (pRB) at pRb (S807/811): Cat #8516 pRb (S780): Cat #8180. Control antibodies as follows total AKT: Cat #9272 pAKT: Cat #4060.

[5] = system: MCF7 cells; assay: Cell cycle / S-phase by EdU incorporation and flow cytometry in MCF7 cells; type: cell-based, human
Method: FIG. 13 is a representative FACS plot of the cell cycle distribution. The gate settings and percentage for cells in G0/G1, S and G2/M phases are indicated. DNA synthesis (S-phase) was determined by quantifying cells positive for both EdU incorporation and DNA content.

[6] = system: MCF7 cells; assay: Proliferation assay (Cell Titer-Glo), MCF7; type: cell-based, human
Method: (§1) Cells were seeded in duplicate or triplicate at 1500 to 5000 cells per well in 96 well plates, Opaque-walled 96-well plates with clear bottom: 96-well, Black/Clear, Flat bottom with lid, FALCON, 353219 in reduced serum conditions at either 3% v/v FBS or 1% v/v FBS. The day after plating recombinant HRGβ1 was added to yield a final concentration of 10 nM. Control wells received media without HRGβ1. Plates were then incubated for the indicated time period of 4 to 6 days at 37° C. in a humid atmosphere with 95% air, 5% CO2.
(§2) The day after plating recombinant HRGβ1 was added to yield a final concentration of 10 nM. Control wells received media without HRGβ1. […] Where indicated CDK inhibitors were added at 10 μM and dilutions were performed to generate a dose-response curve with 2 controls wells per row. Plates were then incubated for the indicated time period of 4 to 6 days at 37° C. in a humid atmosphere with 95% air, 5% CO2. Growth inhibition was calculated as a function of the relative inhibition or proliferation of cells treated with either growth factor or antagonists to cells treated with diluent only, over the same time period.
(§3) The day after plating recombinant HRGβ1 was added to yield a final concentration of 10 nM. Control wells received media without HRGβ1. […] Where indicated CDK inhibitors were added at 10 μM and dilutions were performed to generate a dose-response curve with 2 controls wells per row. Plates were then incubated for the indicated time period of 4 to 6 days at 37° C. in a humid atmosphere with 95% air, 5% CO2.
(§4) To measure proliferation, Cell Titer-Glo (CTG) assays were performed as per manufacturer's instructions. Specifically, reagent-1 and reagent-2 were equilibrated to room temperature at which point reagent-1 was added to reagent-2 and mixed by vortex. Test plates containing cells were equilibrated to room temperature for 30 minutes at which point an equal volume of CTG reagent was added to each well of the test plate, typically 100 μl to give a final volume of 200 μl per well. Each plate was then sealed with a foil plate sealer and mixed on an orbital shaker for 10 minutes to lyse cells and release cellular ATP. Following mixing plates were incubated at room temperature for 15 minutes to stabilize the luminescent signal. Data was collected by measuring relative luminescence on a Synergy H1 plate reader using the luminescence program. Growth was calculated and expressed as a relative value to the unstimulated control wells on each individual plate. Growth inhibition was calculated as a function of the relative inhibition of cells treated with antagonists to the growth of cells treated with diluent only, over the same time period. Data was then plotted using GraphPad Prism software.

[7] = system: MCF7 cells; assay: Proliferation assay (Cell Titer-Glo), MCF7; type: cell-based, human; conditions: MCF7, ligands 1 nM, fulvestrant 50 nM, palbociclib 40 nM, 6 days
[8] = system: T47D cells; assay: Proliferation assay (Cell Titer-Glo), T47D; type: cell-based, human
Method: as §1, §2, §3, §4

[9] = system: HCC1428 cells; assay: Proliferation assay (Cell Titer-Glo), HCC1428; type: cell-based, human; conditions: HCC1428, stimulated with HRG for 6 days
Method: as §1
(§5) To measure proliferation, Cell Titer-Glo (CTG) assays were performed as per manufacturer's instructions. Specifically, reagent-1 and reagent-2 were equilibrated to room temperature at which point reagent-1 was added to reagent-2 and mixed by vortex. […] Data was collected by measuring relative luminescence on a Synergy H1 plate reader using the luminescence program. Growth was calculated and expressed as a relative value to the unstimulated control wells on each individual plate. Growth inhibition was calculated as a function of the relative inhibition of cells treated with antagonists to the growth of cells treated with diluent only, over the same time period. […]

[10] = system: ZR75-1 cells; assay: Proliferation assay (Cell Titer-Glo), ZR75-1; type: cell-based, human; conditions: ZR75-1
Method: as §2
The day after plating recombinant HRGβ1 was added to yield a final concentration of 10 nM. Control wells received media without HRGβ1. […]
as §5, with “instructions.” for “instructions. Specifically, reagent-1 and reagent-2 were equilibrated to room temperature at which point reagent-1 was added to reagent-2 and mixed by vortex.”

In the case of `CC(=O)c1c(C)c2cnc(Nc3ccc(N4CCNCC4)cn3)nc2n(C2CCCC2)c1=O` [palbociclib, 6-acetyl-8-cyclopentyl-5-methyl-2-{[5-(piperazin-1-yl)pyridin-2-yl]amino}pyrido[2,3-d]pyrimidin-7(8H)-one], the overall survival [1] is given as “did not reach statistical significance”, the “progression free survival (PFS)” value [1] is given as “statistically significant increase” and the solubility ([2]; above pH 4) is given as “reduces significantly”. The solubility ([2]; at or below pH 4) was “high-solubility compound”, the CDK2 activation [3] was “inhibited CDK2 activation” and the “RB phosphorylation / activation” value [4] was “decrease RB activation”. The “S-phase cell cycle progression” value ([5]; MCF7, single agents in the absence of HRG) was “efficacious at inhibiting S-phase cell cycle progression” and the proliferation ([6]; MCF7, single agent CDK4/6 inhibitor over a dose range, 6 days) was “inhibited proliferation in a dose dependent manner”.

B1: HRG: heregulin, naturally occurring ligand of ErbB3; recombinant HRGβ1 from R&D Systems used in the assays (protein)
chain: SHLVKCAEKEKTFCVNGGECFMVKDLSNPSRYLCKCPNEFTGDRCQNYVMASFYKHLGIEFMEAE
In the case of B1, the “inhibiting fulvestrant, palbociclib and combination activity, ligand comparison” value [7] is reported as “most effective ligand”, the proliferation ([8]; estradiol and HRG in combination) is reported as “increased proliferation” and the “inhibiting fulvestrant, palbociclib and combination activity, ligand comparison” value ([8]; ligands 1 nM, fulvestrant 50 nM, palbociclib 40 nM, 6 days) is reported as “most effective ligand”. The proliferation ([8]; stimulated with HRG for 6 days) was “induced proliferation; also recorded: significantly increased the proliferation”, the proliferation [9] was “induced proliferation” and the “effect of HRG on inhibition of CDK2 activation by fulvestrant, palbociclib or abemaciclib” value ([3]; MCF7, HRG 10 nM) was “blocked this inhibitory activity”. For the same molecule, the CDK2 activation [3] was “can activate CDK2”, the “effect of HRG on CDK4/6 inhibitor activity” value [10] was “inhibited the activity of CDK4/6 inhibitors” and the “RB phosphorylation / activation” value [4] was “promoted the phosphorylation and activation of RB”. For the same molecule, the “effect of HRG on cell cycle inhibitory activity of the palbociclib-fulvestrant combination” value ([5]; MCF7) was “blocked the cell cycle inhibitory activity”, the “proportion of cells in the S-phase” value ([5]; MCF7, 24 hours, resting cells 15.8%) was 55% and the “effect of HRG on cell cycle inhibitory activity of fulvestrant or palbociclib” value ([5]; MCF7, single agents) was “significantly inhibited”. The “effect of HRG on the CDK4/6 inhibitor-fulvestrant combination” value ([6]; MCF7) was “blocked”, the “effect of HRG on CDK4/6 inhibitor activity” value ([6]; MCF7, HRG 10 nM, CDK4/6 inhibitor dose range) was “significantly repressed CDK4/6 inhibitor activity” and the proliferation ([6]; MCF7, estradiol and HRG in combination) was “increased proliferation”. For the same molecule, the proliferation ([6]; MCF7, stimulated with HRG for 6 days) was “induced proliferation; also recorded: significantly increased the proliferation”.
